Source: PMC5856423, “Structural basis for recognition of the central conserved region of RSV G by neutralizing human antibodies” (PLoS Pathogens, 2018)

T1: 32-residue peptide encompassing RSV G Phe165-Lys196, subtype B (Human respiratory syncytial virus …, UniProt O36633, strain)
T1 construct: attachment glycoprotein G of human RSV subtype B, residues Phe165-Lys196; The tested set is a series of alanine mutants of this peptide; source: covalently linked peptides on Pepscan cards
T1 chain: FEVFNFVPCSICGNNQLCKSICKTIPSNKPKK

T2: 45-residue synthetic peptide encompassing the subtype A RSV G central conserved region (G peptide) (Human respiratory syncytial virus A …, not fully specified; N-terminal biotin coupling as the last step in synthesis; disulfide bonds of the cystine noose formed by oxidative folding)
T2 construct: attachment glycoprotein G of human RSV subtype A, central conserved region, residues Asn153-Lys197 (45 residues); also called RSV G peptide; subtype A RSV G peptide; source: synthetic peptide (Fmoc solid phase, HPLC), oxidatively folded
T2 chain: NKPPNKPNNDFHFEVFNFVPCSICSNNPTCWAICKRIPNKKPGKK


Tests used:
[1] = biological target: secreted form of RSV G from strain A2 (sG) (human respiratory syncytial virus strain A2)
[2] = biological target: T1, 32-residue peptide encompassing RSV G …; assay: peptide or protein array; Pepscan-based ELISA: peptides covalently linked in the wells of cards, mAb at 1-10 ng/mL overnight at 4°C in PBS with horse serum, OVA and Tween 80; HRP-linked anti-human IgG, ABTS; details: both partners purified
[3] = biological target: T2, 45-residue synthetic peptide …; assay: SPR; G peptide (or its reduced and alkylated form) immobilised on a CM5 chip by primary-amine coupling (25 RU), Biacore X100; Fab in serial 2-fold dilutions in HBS-P+ (CB002.5 25 nM-98 pM, CB017.5 100 nM-195 pM; on the reduced and alkylated peptide CB002.5 1,000-1.95 nM, CB017.5 62.5-1.95 nM); 1:1 binding model; details: both partners purified
[4] = biological target: T3, secreted form of RSV G from strain A2 (sG) (Human respiratory syncytial virus A, …, UniProt P03423, strain); assay: SPR; sG captured by its C-terminal 8xHis tag on an NTA sensor chip (60-150 RU), Biacore X100; Fab in serial 3-fold dilutions from 300 nM to 46.5 pM in HBS-P+; double-reference subtracted, 1:1 binding model; details: both partners purified
T3 construct: attachment glycoprotein G of human respiratory syncytial virus strain A2, secreted form (sG); also called RSV sG; wild-type RSV sG from strain A2; source: FreeStyle 293-F, transfected, purified from supernatant (Strep-Tactin, SEC); not shown: 8xHis, C-terminal, kept

[5] = biological target: reduced and alkylated form of the G peptide (human respiratory syncytial virus subtype A) (UniProt P03423); assay: SPR; G peptide (or its reduced and alkylated form) immobilised on a CM5 chip by primary-amine coupling (25 RU), Biacore X100; Fab in serial 2-fold dilutions in HBS-P+ (CB002.5 25 nM-98 pM, CB017.5 100 nM-195 pM; on the reduced and alkylated peptide CB002.5 1,000-1.95 nM, CB017.5 62.5-1.95 nM); 1:1 binding model

Row | Binder | IC50 of neutralization of RSV (rgRSV224) infection of primary HBECs at an air-liquid interface, in the absence of complement; pair that is blocked: RSV G and CX3CR1 [1] | binding result [2] | Kd [3] | Kd [4] | Kd [5]
1 | CB002.5 IgG (antibody, V domains shown) VH: QVQLQESGPRLVKPSETLSLTCTVSGGSTSSYFWNWIRQPPGKGLEWIGYIYGSGSADYNPSLKSRVTISIDTSKTQFSLKLTSVTAADTAVYYCARSGFCSDDACYRRGSWFDPWGQGTLVTVSS VL: DIQMTQSPSSLSASVGDRVTITCRASQSIDNYLNWYQQKPGKAPKLLIYAASGLQSGVPSRFSGSGSGTEFTLTVSSLHPEDFATYYCQQSYSTLTWTFGQGTKVEIK | 4.7 nM | – | – | – | –
2 | CB017.5 IgG (antibody, V domains shown, as the light chain of m2 (PDB 6BLH); full-length IgG1; also called antibody CB017.5; source: FreeStyle 293-F or PER.C6 cells, transfected, purified (Protein A)) VH: QVQLVESGGGVVQPGRSLRLSCSASGFTFSVYAMHWVRQAPGQGLEWVAIIWYDGSNKYYADSVKGRFTISRDNSKETLYLQMNSLRVEDTAVYYCARDPIVGHTRDGLDVWGQGTTVTVSS VL: SYELTQPPSVSVSPGQTARVTCSGDAMAEQYTYWYQQKPGQAPVLIIFKDTERPSGIPERFSGSSSGTTVTLTISGVQTEDEADYYCQSTDSSGTSWVFGGGTKLTVL | 45.4 nM | binds | – | – | –
3 | Fab CB002.5 (Fab, V domains shown, human; Fab cut with papain from full-length IgG1; source: IgG from FreeStyle 293-F or PER.C6 cells, transfected, Protein A; Fab by papain digestion, purified (Protein A flow-through, SEC)) VH: QVQLQESGPRLVKPSETLSLTCTVSGGSTSSYFWNWIRQPPGKGLEWIGYIYGSGSADYNPSLKSRVTISIDTSKTQFSLKLTSVTAADTAVYYCARSGFCSDDACYRRGSWFDPWGQGTLVTVSS VL: DIQMTQSPSSLSASVGDRVTITCRASQSIDNYLNWYQQKPGKAPKLLIYAASGLQSGVPSRFSGSGSGTEFTLTVSSLHPEDFATYYCQQSYSTLTWTFGQGTKVEIK | – | – | 0.52 nM | 3.3 nM | 18000 nM
4 | Fab CB017.5 (Fab, V domains shown, human; Fab cut with papain from full-length IgG1; source: IgG from FreeStyle 293-F or PER.C6 cells, transfected, Protein A; Fab by papain digestion, purified (Protein A flow-through, SEC)) VH: QVQLVESGGGVVQPGRSLRLSCSASGFTFSVYAMHWVRQAPGQGLEWVAIIWYDGSNKYYADSVKGRFTISRDNSKETLYLQMNSLRVEDTAVYYCARDPIVGHTRDGLDVWGQGTTVTVSS VL: SYELTQPPSVSVSPGQTARVTCSGDAMAEQYTYWYQQKPGQAPVLIIFKDTERPSGIPERFSGSSSGTTVTLTISGVQTEDEADYYCQSTDSSGTSWVFGGGTKLTVL | – | – | 4.1 nM | 2.4 nM | 27 nM
